# B1: EF-hand domain-containing protein 1 (Homo sapiens), Q5JVL4 (parent)
# chain: MVSNPVHGLPFLPGTSFKDSTKTAFHRSQTLSYRNGYAIVRRPTVGIGGDRLQFNQLSQAELDELASKAPVLTYGQPKQAPPADFIPAHVAFDKKVLKFDAYFQEDVPMSTEEQYRIRQVNIYYYLEDDSMSVIEPVVENSGILQGKLIKRQRLAKNDRGDHYHWKDLNRGINITIYGKTFRVVDCDQFTQVFLESQGIELNPPEKMALDPYTELRKQPLRKYVTPSDFDQLKQFLTFDKQVLRFYAIWDDTDSMYGECRTYIIHYYLMDDTVEIREVHERNDGRDPFPLLMNRQRVPKVLVENAKNFPQCVLEISDQEVLEWYTAKDFIVGKSLTILGRTFFIYDCDPFTRRYYKEKFGITDLPRIDVSKREPPPVKQELPPYNGFGLVEDSAQNCFALIPKAPKKDVIKMLVNDNKVLRYLAVLESPIPEDKDRRFVFSYFLATDMISIFEPPVRNSGIIGGKYLGRTKVVKPYSTVDNPVYYGPSDFFIGAVIEVFGHRFIILDTDEYVLKYMESNAAQYSPEALASIQNHVRKREAPAPEAESKQTEKDPGVQELEALIDTIQKQLKDHSCKDNIREAFQIYDKEASGYVDRDMFFKICESLNVPVDDSLVKELIRMCSHGEGKINYYNFVRAFSN
# partner: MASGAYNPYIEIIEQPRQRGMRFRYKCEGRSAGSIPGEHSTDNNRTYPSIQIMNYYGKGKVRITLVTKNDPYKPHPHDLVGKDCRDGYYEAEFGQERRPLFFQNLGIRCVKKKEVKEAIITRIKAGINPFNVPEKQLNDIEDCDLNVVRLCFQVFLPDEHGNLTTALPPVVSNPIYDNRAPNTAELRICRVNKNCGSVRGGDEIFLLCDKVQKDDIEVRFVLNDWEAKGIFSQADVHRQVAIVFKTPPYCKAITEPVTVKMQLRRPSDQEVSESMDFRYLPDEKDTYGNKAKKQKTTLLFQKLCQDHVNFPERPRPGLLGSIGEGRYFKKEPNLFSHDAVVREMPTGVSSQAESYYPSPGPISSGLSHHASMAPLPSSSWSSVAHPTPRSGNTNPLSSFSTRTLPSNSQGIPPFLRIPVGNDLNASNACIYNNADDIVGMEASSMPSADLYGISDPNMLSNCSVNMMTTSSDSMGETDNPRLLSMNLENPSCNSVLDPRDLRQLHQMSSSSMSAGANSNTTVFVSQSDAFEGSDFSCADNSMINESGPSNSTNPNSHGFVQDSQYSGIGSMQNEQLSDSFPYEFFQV
# B2: Emerin (Homo sapiens), P50402 (parent)
# chain: MDNYADLSDTELTTLLRRYNIPHGPVVGSTRRLYEKKIFEYETQRRRLSPPSSSAASSYSFSDLNSTRGDADMYDLPKKEDALLYQSKGYNDDYYEESYFTTRTYGEPESAGPSRAVRQSVTSFPDADAFHHQVHDDDLLSSSEEECKDRERPMYGRDSAYQSITHYRPVSASRSSLDLSYYPTSSSTSFMSSSSSSSSWLTRRAIRPENRAPGAGLGQDRQVPLWGQLLLFLVFVIVLFFIYHFMQAEEGNPF
# partner: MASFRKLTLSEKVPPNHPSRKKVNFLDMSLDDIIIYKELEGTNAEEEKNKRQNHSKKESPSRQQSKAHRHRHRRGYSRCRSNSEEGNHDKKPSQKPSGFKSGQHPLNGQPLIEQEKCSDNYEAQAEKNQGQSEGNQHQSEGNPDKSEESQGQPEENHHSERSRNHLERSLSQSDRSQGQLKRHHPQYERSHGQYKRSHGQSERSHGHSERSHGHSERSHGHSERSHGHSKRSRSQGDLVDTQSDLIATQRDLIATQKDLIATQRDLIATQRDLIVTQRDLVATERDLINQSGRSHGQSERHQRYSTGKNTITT
# B3: F-box only protein 7 (Homo sapiens), Q9Y3I1 (parent)
# chain: MRLRVRLLKRTWPLEVPETEPTLGHLRSHLRQSLLCTWGYSSNTRFTITLNYKDPLTGDEETLASYGIVSGDLICLILQDDIPAPNIPSSTDSEHSSLQNNEQPSLATSSNQTSMQDEQPSDSFQGQAAQSGVWNDDSMLGPSQNFEAESIQDNAHMAEGTGFYPSEPMLCSESVEGQVPHSLETLYQSADCSDANDALIVLIHLLMLESGYIPQGTEAKALSMPEKWKLSGVYKLQYMHPLCEGSSATLTCVPLGNLIVVNATLKINNEIRSVKRLQLLPESFICKEKLGENVANIYKDLQKLSRLFKDQLVYPLLAFTRQALNLPDVFGLVVLPLELKLRIFRLLDVRSVLSLSAVCRDLFTASNDPLLWRFLYLRDFRDNTVRVQDTDWKELYRKRHIQRKESPKGRFVMLLPSSTHTIPFYPNPLHPRPFPSSRLPPGIIGGEYDQRPTLPYVGDPISSLIPGPGETPSQFPPLRPRFDPVGPLPGPNPILPGRGGPNDRFPFRPSRGRPTDGRLSFM
# partner: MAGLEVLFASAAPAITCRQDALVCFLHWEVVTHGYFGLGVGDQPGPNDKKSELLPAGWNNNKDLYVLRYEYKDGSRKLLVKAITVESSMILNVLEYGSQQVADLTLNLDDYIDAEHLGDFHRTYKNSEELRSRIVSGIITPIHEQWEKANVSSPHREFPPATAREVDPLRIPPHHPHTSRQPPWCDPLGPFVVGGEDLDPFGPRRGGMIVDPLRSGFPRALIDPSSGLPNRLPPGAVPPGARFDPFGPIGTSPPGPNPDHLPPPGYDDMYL
# B4: EF-hand domain-containing protein 1 (Homo sapiens), Q5JVL4 (parent)
# chain: B1 chain
# partner: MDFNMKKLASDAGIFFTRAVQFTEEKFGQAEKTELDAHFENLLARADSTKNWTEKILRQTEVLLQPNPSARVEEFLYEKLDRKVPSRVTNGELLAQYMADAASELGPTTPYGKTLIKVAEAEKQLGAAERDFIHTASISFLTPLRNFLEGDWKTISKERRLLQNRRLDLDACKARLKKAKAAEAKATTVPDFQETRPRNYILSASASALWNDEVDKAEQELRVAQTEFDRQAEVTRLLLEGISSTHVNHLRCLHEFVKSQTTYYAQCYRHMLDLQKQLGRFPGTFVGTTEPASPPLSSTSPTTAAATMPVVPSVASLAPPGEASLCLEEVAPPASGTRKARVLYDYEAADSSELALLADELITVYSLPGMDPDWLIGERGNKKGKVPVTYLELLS
# Variants of: B1
# Details: with REL
row,Variant,effect of a mutation on the interaction
1,R221H,disrupting interaction strength

# Variants of: B2
# Details: with luzp4_human LUZP4, Q9P127
row,Variant,effect of a mutation on the interaction
1,S54F,with no effect
2,D72V,with no effect
3,P183T,with no effect
4,P183H,with no effect

# Variants of: B3
# Details: with psmf1_human PSMF1, Q92530
row,Variant,effect of a mutation on the interaction
1,T22M,disrupting interaction strength

# Variants of: B4
# Details: with shlb2_human SH3GLB2, Q9NR46
row,Variant,effect of a mutation on the interaction
1,T508R,with no effect
2,M448T,with no effect
3,A394S,disrupting interaction strength
4,P77T,disrupting interaction strength

# Reference: IntAct's records for PubMed 25910212
